B1: MLL1 third plant homeodomain (PHD3) (domain or fragment, UniProt Q03164 1564-1627, looked up)
chain: AKGNFCPLCDKCYDDDDYESKMMQCGKCDRWVHSKCENLSDEMYEILSNLPESVAYTCVNCTER
notes: mixed-lineage leukemia 1 (MLL1), PHD3 domain, residues 1564 to 1627 (chain B 1564–1627); coordinates two zinc ions; The tag was removed with TEV protease on the chitin column; also called MLL1 PHD3; MLL1-PHD3; source: E. coli BL21-(DE3), codon-optimized construct, IMPACT system, purified (chitin beads, TEV cleavage, Superdex 75)

Tests used:
Conditions in all cases: both partners purified
[1] = target: B1; experiment: ITC; conditions not given (table S1, fig. S2)
[2] = target: Cyp33 RRM/MLL1 PHD3 complex (human | , UniProt Q9UNP9 1-114; Q03164 1564-1627); experiment: ITC; conditions not given (table S1, fig. S2)
[3] = target: T1, Cyp33 full-length (FL) (human, UniProt Q9UNP9 1-301); experiment: NMR titration; Cyp33 FL:UAAUGU RNA complex mixed with MLL1 PHD3:H3K4me3 complex at 1:1:1:1 stoichiometry (or in large excess of Cyp33:RNA); signals of RNA, of the K4me3 methyl groups and of PHD3 residues followed
T1 construct: cyclophilin 33 (Cyp33), 33 kDa, N-terminal RRM and C-terminal cyclophilin domain; details may stand in the Supplementary Materials and Methods; also called Cyp33 FL; cyclophilin 33
T1 sequence (Q9UNP9 whole entry, the tested form may be a part): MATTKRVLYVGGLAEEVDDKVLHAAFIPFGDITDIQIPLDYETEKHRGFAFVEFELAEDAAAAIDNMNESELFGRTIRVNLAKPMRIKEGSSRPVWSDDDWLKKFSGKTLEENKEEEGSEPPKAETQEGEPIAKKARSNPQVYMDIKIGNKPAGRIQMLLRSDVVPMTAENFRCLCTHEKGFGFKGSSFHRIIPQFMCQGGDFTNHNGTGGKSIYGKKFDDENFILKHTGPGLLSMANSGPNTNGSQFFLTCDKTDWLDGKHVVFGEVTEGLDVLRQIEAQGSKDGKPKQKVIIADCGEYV

Sequence of Cyp33 RRM/MLL1 PHD3 complex (Q9UNP9 other isoform, or with tags, fused parts or gaps): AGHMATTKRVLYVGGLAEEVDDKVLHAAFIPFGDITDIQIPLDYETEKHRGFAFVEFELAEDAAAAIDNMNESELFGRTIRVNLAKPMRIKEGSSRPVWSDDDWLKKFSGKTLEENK

Kd [1] [µM] | Kd [2] [µM] | binding result [3] | Binder
51 | 70 | – | ARTKQTARKSTGG (peptide, UniProt P68431 2-14, looked up, N6-trimethyl-lysine at 4, histone H3 N-terminal tail, residues 1–13 (chain C of the ternary complex), Lys4 trimethylated; The text says that it has four positively charged residues and no negatively charged one; The limits 1–13 are those of chain C of the structure; also called H3K4me3 peptide; histone H3 tail) [Histone H3 lysine N6-trimethylated peptide (H3K4me3)]
– | – | binds | B1
